Data: patent publication US20230082287A1, “METHODS OF TREATING AN INFLAMMATORY OR OBSTRUCTIVE AIRWAY DISEASE USING ANTI-TSLP ANTIBODY” (Novartis AG, priority 2020, published 2023)
Where two headings read alike, the source gives them in different places.

Legend:
[1] = Healthy Japanese SAD study: serum CSJ117 pharmacokinetics; conditions: cross-study comparison at 9 and 32 mg
Experimental: (§1) In addition, the PK analysis set for the healthy Japanese SAD Study included 18 subjects, six subjects per single inhaled dose of 9, 16 and 32 mg administered via Concept 1 device.

[2] = GLP monkey toxicity study: dose and exposure multiples versus human 4 mg QD dose; type: in vivo, cynomolgus monkey
Description: The rationale for a 12-week study treatment duration was based on the following: (i) the 12-week treatment period was warranted from a safety perspective given the data from the 13-week cynomolgus monkey toxicity study; (ii) the 12-week dosing period was anticipated to provide greater information on the PK profile of CSJ117 in humans (as compared to a shorter study duration); (iii) completing 12-weeks of dosing prior to dose escalation(s) provided greater safety information, as systemic exposure is expected to have achieved steady state; (iv) 12 weeks was expected to be sufficient duration to allow assessment of PD effects in the AIC.
Lung weight scaling was selected for the HED calculation due to the CSJ117-related changes in the respiratory tract and the lack of significant systemic side effects in the monkey toxicity studies. • Exposure multiples were also calculated to compare the observed systemic exposure in monkeys with the systemic exposure in humans, based on the observed single dose PK data in healthy subjects, assuming either linear or nonlinear PK. For multiple daily inhalations in humans, assuming linear and time-independent PK (i.e., a 2.4 fold accumulation ratio), the estimated human systemic exposure at steady state for a 4 mg dose was 948-fold below the monkey Day 91 systemic exposure.

[3] = in vivo
Experimental: Single dose of 1 mg (Cohort 1), 3 mg (Cohort 2), 9 mg (Cohort 3), 32 mg (Cohort 4), 64 mg (Cohort 5), 160 mg (Cohort 6) or placebo was administered via inhalation. First-in-human study was conducted in 51 healthy volunteers (HVs), of which 37 subjects were exposed to CSJ117 and 12 to placebo.
The PK analysis set for the FIH SAD Study included 37 subjects. PK samples were collected up to 28 days post dose.

[4] = Phase 2a bronchoprovocation study: safety and tolerability; type: in vivo; conditions: 12 weeks
Description: This was a non-confirmatory, randomized, subject- and investigator-blinded, placebo-controlled, parallel-design, multi-center bronchoprovocation study. […] Two sequential dose cohorts were enrolled for this study. • Cohort 1: 24 subjects (12 active and 12 placebo) • Cohort 2a: 4 subjects (3 active and 1 placebo)
No adverse events (AE) imbalance observed across treatment groups. […] No subject discontinued study drug due to an adverse event. The most frequent treatment-emergent adverse events were headache, nasopharyngitis, and oropharyngeal pain.

[5] = human, in vivo, inhaled or intranasal, 32 mg
Experimental: as §1

[6] = First-in-human single ascending dose study: safety and tolerability; type: in vivo
Experimental: The safety, tolerability and PK of CSJ117 have been evaluated in healthy volunteers (HV) in a single ascending dose (SAD) study.
A first-in-human, randomized, subject-blind, placebo controlled, single ascending dose study was conducted to assess the safety, tolerability and pharmacokinetics of CSJ117 in adult healthy subjects. Single dose of 1 mg (Cohort 1), 3 mg (Cohort 2), 9 mg (Cohort 3), 32 mg (Cohort 4), 64 mg (Cohort 5), 160 mg (Cohort 6) or placebo was administered via inhalation.

[7] = tested on: late asthmatic response (LAR); assay: Hill equation simulation of CSJ117 dose-response (LAR efficacy); design: species or system human; conditions: for Predicted efficacy: range over Emax scenarios; for ED50: Dose = 4 mg, E = 47.6%, Hill slope n = 1
Experimental: Simulation of Dose-Response Curves of CSJ117 from Doses Ranging from 0.5 to 8 mg:
% Efficacy of CSJ117 in PoC study compared to placebo was calculated using following formula: % E=[(B−A)/B]×100, where, E=Efficacy; A and B are LAR measured by max fall % FEV1 value in treated and placebo groups, respectively.
Maximum efficacy (Emax) of CSJ117 is unknown at this time and three potential values of Emax are possible:
From Emax and ED50 in each scenario above, a dose-response curve was generated using Hill equation to assess range of efficacy values resulting from 0.5 to 8 mg once daily dose of CSJ117 (FIGS. 6 and 7). Efficacy due to 0.5 mg and 8 mg once daily dose of CSJ117 is predicted to range from 10-35% and 65-88% of maximum effect, respectively. As visible in plots of FIGS. 6 and 7, the planned dose range of 0.5, 1, 2, 4, and 8 mg o.d. of CSJ117 during Ph2B (Example 4) is expected to adequately describe the dose-response for CSJ117.

[8] = human, inhaled or intranasal, 1 mg
[9] = human, inhaled or intranasal, 3 mg
[10] = human, inhaled or intranasal, 9 mg
[11] = human, inhaled or intranasal, 32 mg
[12] = human, inhaled or intranasal, 64 mg
[13] = human, inhaled or intranasal, 160 mg

B1: CSJ117: potent neutralizing antibody fragment (Fab) directed against human TSLP; heavy chain SEQ ID NO: 9, light chain SEQ ID NO: 19 (antibody)
heavy: EVQLVESGGGLVKPGGSLRLSCAASGFTFSDYWMHWVRQAPGKGLEWVGHIKSKTDAGTTDYAAPVKGRFTISRDDSKNTLYLQMNSLKTEDTAVYYCAREIYYYAFDSWGQGTLVTVSSASTKGPSVFPLAPSSKSTSGGTAALGCLVKDYFPEPVTVSWNSGALTSGVHTFPAVLQSSGLYSLSSVVTVPSSSLGTQTYICNVNHKPSNTKVDKRVEPKSC
light: SYELTQPLSVSVALGQTARITCSGDNIGSKYVHWYQQKPGQAPVLVIYGDNERPSGIPERFSGSNSGNTATLTISRAQAGDEADYYCQAADWVDFYVFGGGTKLTVLGQPKAAPSVTLFPPSSEELQANKATLVCLISDFYPGAVTVAWKADSSPVKAGVETTTPSKQSNNKYAASSYLSLTPEQWKSHRSYSCQVTHEGSTVEKTVAPTECS
- AUCinf in Japanese relative to non-Japanese subjects [1]: 0.6-1.5 fold
- Cmax in Japanese relative to non-Japanese subjects [1]: 0.5-1.1 fold
- Accumulation ratio in humans ([2]; cynomolgus monkey, in vivo): 2.4 fold
- Systemic accumulation ratio observed in monkeys ([2]; cynomolgus monkey, in vivo): 148 fold
- Dose multiple: human equivalent dose of monkey NOAEL versus 4 mg QD ([2]; lung weight scaling): 51.5 fold
- mean terminal elimination half-life (T1/2) ([3]; human, inhaled or intranasal): 17.4 to 21.1 h
- median time to achieve maximum CSJ117 serum concentration (Tmax) ([3]; human, inhaled or intranasal): 6 to 21 h
- AUClast [3, 8]: 109 ng·h/mL
- Cmax [3, 8]: 5.90 ng/mL
- T1/2 [3, 8]: 18.5 h
- Tmax [3, 8]: 21.0 h
- AUClast [3, 9]: 127 ng·h/mL
- Cmax [3, 9]: 5.65 ng/mL
- T1/2 [3, 9]: 18.7 h
- Tmax [3, 9]: 12.0 h
- AUCinf [3, 10]: 597 ng·h/mL
- AUClast [3, 10]: 353 ng·h/mL
- CL/F [3, 10]: 15.6 L/h
- Cmax [3, 10]: 12.5 ng/mL
- T1/2 [3, 10]: 21.1 h
- Tmax [3, 10]: 12.0 h
- Vz/F [3, 10]: 481 L
- AUCinf [3, 11]: 1710 ng·h/mL
- AUClast [3, 11]: 1610 ng·h/mL
- CL/F [3, 11]: 22.0 L/h
- Cmax [3, 11]: 57.6 ng/mL
- T1/2 [3, 11]: 17.4 h
- Tmax [3, 11]: 6.00 h
- Vz/F [3, 11]: 555 L
- AUCinf [3, 12]: 2650 ng·h/mL
- AUClast [3, 12]: 2500 ng·h/mL
- CL/F [3, 12]: 28.5 L/h
- Cmax [3, 12]: 61.4 ng/mL
- T1/2 [3, 12]: 20.1 h
- Tmax [3, 12]: 12.0 h
- Vz/F [3, 12]: 815 L
- AUCinf [3, 13]: 5750 ng·h/mL
- AUClast [3, 13]: 5590 ng·h/mL
- CL/F [3, 13]: 33.0 L/h
- Cmax [3, 13]: 152 ng/mL
- T1/2 [3, 13]: 18.2 h
- Tmax [3, 13]: 9.00 h
- Vz/F [3, 13]: 915 L
- CSJ117 serum exposure versus dose [3]: increased in a dose-dependent manner
- Severe or serious adverse events ([4]; 4 mg QD): No subject developed a severe or serious adverse event
- Safety and tolerability ([4]; mild asthmatics, 4 mg QD): safe and well tolerated
- rate of moderately severe adverse events ([4]; subjects receiving CSJ117 4 mg QD): 21.6%
- mean T1/2 [5]: 18.6 to 22.4 h
- Subjects with adverse events (AEs) ([6]; 7/37 CSJ117 subjects, single inhaled doses 1-160 mg): 19 % of subjects
- Deaths or serious adverse events ([6]; FIH study): no deaths or serious adverse events
- Predicted efficacy ([7]; 0.5 mg once daily dose): 10-35 % of maximum effect
- Predicted efficacy ([7]; 8 mg once daily dose): 65-88 % of maximum effect
- ED50 ([7]; Scenario 1: Emax 100%): 4.4 mg
- ED50 ([7]; Scenario 2: Emax 80%): 2.3 mg
- ED50 ([7]; Scenario 3: Emax 60%): 1.0 mg
